Results from publication PMC4721865.

Tests used:
[1] = target: ASP1-GST fusion protein (aspartic protease ASP-1 of C. elegans) (C. elegans) (UniProt G5EEI4); experiment: ELISA; plates coated with 0.5 ug ASP-1/well in 20 mM HEPES pH 8.0, blocked with PBST 3% BSA, increasing concentrations of biotinylated toxin; specific binding = total minus binding with 1000-fold molar excess of unlabeled Cry6Aa
[2] = target: ASP1-GST fusion protein (aspartic protease ASP-1 of C. elegans) (C. elegans) (UniProt G5EEI4); experiment: ITC; 25 C, 20 mM HEPES pH 8.0; 21.16 uM Cry6Aa titrated into 2.20 uM ASP-1 in the cell, 20 injections of 10 uL

Substance: biotin-labeled crystal protein Cry6Aa (from UniProt Q45757 1-475) (natural protein)
- Kd [1]: 146 nM

Substance: crystal protein Cry6Aa (unlabeled) (from UniProt Q45757 1-475) (natural protein)
- Kd [2]: 126 nM
